The labels stand for the following.
B1: Vasculin (Homo sapiens), Q86WP2 (parent)
chain: MAQHDFAPAWLNFPTPPSSTKSSLNFEKHSENFAWTENRYDVNRRRHNSSDGFDSAIGRPNGGNFGRKEKNGWRTHGRNGTENINHRGGYHGGSSRSRSSIFHAGKSQGLHENNIPDNETGRKEDKRERKQFEAEDFPSLNPEYEREPNHNKSLAAGVWEYPPNPKSRAPRMLVIKKGNTKDLQLSGFPVVGNLPSQPVKNGTGPSVYKGLVPKPAAPPTKPTQWKSQTKENKVGTSFPHESTFGVGNFNAFKSTAKNFSPSTNSVKECNRSNSSSPVDKLNQQPRLTKLTRMRTDKKSEFLKALKRDRVEEEHEDESRAGSEKDDDSFNLHNSNSTHQERDINRNFDENEIPQENGNASVISQQIIRSSTFPQTDVLSSSLEAEHRLLKEMGWQEDSENDETCAPLTEDEMREFQVISEQLQKNGLRKNGILKNGLICDFKFGPWKNSTFKPTTENDDTETSSSDTSDDDDV
partner: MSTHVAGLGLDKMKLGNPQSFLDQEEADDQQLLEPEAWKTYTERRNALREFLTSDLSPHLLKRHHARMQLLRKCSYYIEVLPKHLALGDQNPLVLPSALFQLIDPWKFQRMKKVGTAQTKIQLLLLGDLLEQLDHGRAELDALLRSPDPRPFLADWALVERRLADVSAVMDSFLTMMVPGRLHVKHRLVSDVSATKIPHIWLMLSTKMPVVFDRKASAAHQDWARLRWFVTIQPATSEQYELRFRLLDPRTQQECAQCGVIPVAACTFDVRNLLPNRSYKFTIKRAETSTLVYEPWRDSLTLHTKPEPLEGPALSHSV
B2: Ras GTPase-activating protein-binding protein 2 (Homo sapiens), Q9UN86 (parent)
chain: MVMEKPSPLLVGREFVRQYYTLLNKAPEYLHRFYGRNSSYVHGGVDASGKPQEAVYGQNDIHHKVLSLNFSECHTKIRHVDAHATLSDGVVVQVMGLLSNSGQPERKFMQTFVLAPEGSVPNKFYVHNDMFRYEDEVFGDSEPELDEESEDEVEEEQEERQPSPEPVQENANSGYYEAHPVTNGIEEPLEESSHEPEPEPESETKTEELKPQVEEKNLEELEEKSTTPPPAEPVSLPQEPPKAFSWASVTSKNLPPSGTVSSSGIPPHVKAPVSQPRVEAKPEVQSQPPRVREQRPRERPGFPPRGPRPGRGDMEQNDSDNRRIIRYPDSHQLFVGNLPHDIDENELKEFFMSFGNVVELRINTKGVGGKLPNFGFVVFDDSEPVQRILIAKPIMFRGEVRLNVEEKKTRAARERETRGGGDDRRDIRRNDRGPGGPRGIVGGGMMRDRDGRGPPPRGGMAQKLGSGRGTGQMEGRFTGQRR
B3: CD151 antigen (Homo sapiens), P48509 (parent)
chain: MGEFNEKKTTCGTVCLKYLLFTYNCCFWLAGLAVMAVGIWTLALKSDYISLLASGTYLATAYILVVAGTVVMVTGVLGCCATFKERRNLLRLYFILLLIIFLLEIIAGILAYAYYQQLNTELKENLKDTMTKRYHQPGHEAVTSAVDQLQQEFHCCGSNNSQDWRDSEWIRSQEAGGRVVPDSCCKTVVALCGQRDHASNIYKVEGGCITKLETFIQEHLRVIGAVGIGIACVQVFGMIFTCCLYRSLKLEHY
B4: Coiled-coil alpha-helical rod protein 1 (Homo sapiens), Q8TD31 (parent)
chain: MFPPSGSTGLIPPSHFQARPLSTLPRMAPTWLSDIPLVQPPGHQDVSERRLDTQRPQVTMWERDVSSDRQEPGRRGRSWGLEGSQALSQQAEVIVRQLQELRRLEEEVRLLRETSLQQKMRLEAQAMELEALARAEKAGRAEAEGLRAALAGAEVVRKNLEEGSQRELEEVQRLHQEQLSSLTQAHEEALSSLTSKAEGLEKSLSSLETRRAGEAKELAEAQREAELLRKQLSKTQEDLEAQVTLVENLRKYVGEQVPSEVHSQTWELERQKLLETMQHLQEDRDSLHATAELLQVRVQSLTHILALQEEELTRKVQPSDSLEPEFTRKCQSLLNRWREKVFALMVQLKAQELEHSDSVKQLKGQVASLQEKVTSQSQEQAILQRSLQDKAAEVEVERMGAKGLQLELSRAQEARRRWQQQTASAEEQLRLVVNAVSSSQIWLETTMAKVEGAAAQLPSLNNRLSYAVRKVHTIRGLIARKLALAQLRQESCPLPPPVTDVSLELQQLREERNRLDAELQLSARLIQQEVGRAREQGEAERQQLSKVAQQLEQELQQTQESLASLGLQLEVARQGQQESTEEAASLRQELTQQQELYGQALQEKVAEVETRLREQLSDTERRLNEARREHAKAVVSLRQIQRRAAQEKERSQELRRLQEEARKEEGQRLARRLQELERDKNLMLATLQQEGLLSRYKQQRLLTVLPSLLDKKKSVVSSPRPPECSASAPVAAAVPTRESIKGSLSVLLDDLQDLSEAISKEEAVCQGDNLDRCSSSNPQMSS
partner: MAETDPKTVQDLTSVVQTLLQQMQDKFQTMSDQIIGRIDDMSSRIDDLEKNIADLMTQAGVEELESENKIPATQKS
B5: Transcription factor RFX3 (Homo sapiens), P48380 (parent)
chain: MQTSETGSDTGSTVTLQTSVASQAAVPTQVVQQVPVQQQVQQVQTVQQVQHVYPAQVQYVEGSDTVYTNGAIRTTTYPYTETQMYSQNTGGNYFDTQGSSAQVTTVVSSHSMVGTGGIQMGVTGGQLISSSGGTYLIGNSMENSGHSVTHTTRASPATIEMAIETLQKSDGLSTHRSSLLNSHLQWLLDNYETAEGVSLPRSTLYNHYLRHCQEHKLDPVNAASFGKLIRSIFMGLRTRRLGTRGNSKYHYYGIRVKPDSPLNRLQEDMQYMAMRQQPMQQKQRYKPMQKVDGVADGFTGSGQQTGTSVEQTVIAQSQHHQQFLDASRALPEFGEVEISSLPDGTTFEDIKSLQSLYREHCEAILDVVVNLQFSLIEKLWQTFWRYSPSTPTDGTTITESSNLSEIESRLPKAKLITLCKHESILKWMCNCDHGMYQALVEILIPDVLRPIPSALTQAIRNFAKSLEGWLSNAMNNIPQRMIQTKVAAVSAFAQTLRRYTSLNHLAQAARAVLQNTSQINQMLSDLNRVDFANVQEQASWVCQCDDNMVQRLETDFKMTLQQQSTLEQWAAWLDNVMMQALKPYEGRPSFPKAARQFLLKWSFYSSMVIRDLTLRSAASFGSFHLIRLLYDEYMFYLVEHRVAQATGETPIAVMGEFGDLNAVSPGNLDKDEGSEVESEMDEELDDSSEPQAKREKTELSQAFPVGCMQPVLETGVQPSLLNPIHSEHIVTSTQTIRQCSATGNTYTAV
partner: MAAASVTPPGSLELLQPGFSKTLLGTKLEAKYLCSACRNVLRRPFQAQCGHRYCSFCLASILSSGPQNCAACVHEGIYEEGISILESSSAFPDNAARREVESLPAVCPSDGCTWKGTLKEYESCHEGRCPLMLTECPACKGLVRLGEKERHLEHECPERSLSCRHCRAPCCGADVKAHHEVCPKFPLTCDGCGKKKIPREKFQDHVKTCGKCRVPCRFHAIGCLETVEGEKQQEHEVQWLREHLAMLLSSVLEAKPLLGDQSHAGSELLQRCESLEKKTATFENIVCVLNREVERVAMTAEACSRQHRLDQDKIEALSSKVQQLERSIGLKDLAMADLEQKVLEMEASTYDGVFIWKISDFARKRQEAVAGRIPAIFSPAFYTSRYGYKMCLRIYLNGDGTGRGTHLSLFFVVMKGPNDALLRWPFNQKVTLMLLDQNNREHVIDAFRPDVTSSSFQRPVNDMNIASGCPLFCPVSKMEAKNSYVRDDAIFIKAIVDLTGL
B6: Coiled-coil alpha-helical rod protein 1 (Homo sapiens), Q8TD31 (parent)
chain: B4 chain
partner: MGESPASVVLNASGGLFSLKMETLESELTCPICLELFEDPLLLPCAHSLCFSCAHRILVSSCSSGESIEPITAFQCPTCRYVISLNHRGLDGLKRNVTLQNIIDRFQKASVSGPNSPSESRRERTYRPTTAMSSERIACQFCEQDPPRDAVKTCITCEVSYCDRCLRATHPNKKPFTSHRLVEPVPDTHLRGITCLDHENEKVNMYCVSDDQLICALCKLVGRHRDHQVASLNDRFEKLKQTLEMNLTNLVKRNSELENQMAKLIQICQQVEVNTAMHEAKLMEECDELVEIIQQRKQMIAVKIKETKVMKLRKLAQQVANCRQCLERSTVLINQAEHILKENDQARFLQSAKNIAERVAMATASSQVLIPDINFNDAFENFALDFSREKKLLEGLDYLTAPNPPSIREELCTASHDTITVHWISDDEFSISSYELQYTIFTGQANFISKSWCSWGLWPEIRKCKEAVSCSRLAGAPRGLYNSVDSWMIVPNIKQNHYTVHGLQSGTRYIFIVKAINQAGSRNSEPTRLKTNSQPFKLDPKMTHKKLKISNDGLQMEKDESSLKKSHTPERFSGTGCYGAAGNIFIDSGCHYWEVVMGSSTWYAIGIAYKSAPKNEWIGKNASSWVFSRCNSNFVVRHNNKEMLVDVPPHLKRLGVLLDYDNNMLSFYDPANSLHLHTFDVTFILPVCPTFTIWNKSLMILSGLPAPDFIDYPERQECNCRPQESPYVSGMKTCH
B7: Ceramide transfer protein (Homo sapiens), Q9Y5P4 (parent)
chain: MSDNQSWNSSGSEEDPETESGPPVERCGVLSKWTNYIHGWQDRWVVLKNNALSYYKSEDETEYGCRGSICLSKAVITPHDFDECRFDISVNDSVWYLRAQDPDHRQQWIDAIEQHKTESGYGSESSLRRHGSMVSLVSGASGYSATSTSSFKKGHSLREKLAEMETFRDILCRQVDTLQKYFDACADAVSKDELQRDKVVEDDEDDFPTTRSDGDFLHSTNGNKEKLFPHVTPKGINGIDFKGEAITFKATTAGILATLSHCIELMVKREDSWQKRLDKETEKKRRTEEAYKNAMTELKKKSHFGGPDYEEGPNSLINEEEFFDAVEAALDRQDKIEEQSQSEKVRLHWPTSLPSGDAFSSVGTHRFVQKPYSRSSSMSSIDLVSASDDVHRFSSQVEEMVQNHMTYSLQDVGGDANWQLVVEEGEMKVYRREVEENGIVLDPLKATHAVKGVTGHEVCNYFWNVDVRNDWETTIENFHVVETLADNAIIIYQTHKRVWPASQRDVLYLSVIRKIPALTENDPETWIVCNFSVDHDSAPLNNRCVRAKINVAMICQTLVSPPEGNQEISRDNILCKITYVANVNPGGWAPASVLRAVAKREYPKFLKRFTSYVQEKTAGKPILF

The values that follow come from IntAct's records for PubMed 29892012.

The variants in the first test derive from B1. As to conditions: with fnd11_human FNDC11, Q9BVV2.
As for R129C, the “effect of a mutation on the interaction” value was “with no effect”.

In a further test the parent is B1. As to conditions: with fnd11_human FNDC11, Q9BVV2. The source holds these as a separate data set.
In the case of R292Q, the “effect of a mutation on the interaction” value is listed as “with no effect”.

Variants of B2 are the subject of the next test. Conditions: with ubp10_human USP10, Q14694.
Sequence of ubp10_human USP10, Q14694 (Q14694 whole entry): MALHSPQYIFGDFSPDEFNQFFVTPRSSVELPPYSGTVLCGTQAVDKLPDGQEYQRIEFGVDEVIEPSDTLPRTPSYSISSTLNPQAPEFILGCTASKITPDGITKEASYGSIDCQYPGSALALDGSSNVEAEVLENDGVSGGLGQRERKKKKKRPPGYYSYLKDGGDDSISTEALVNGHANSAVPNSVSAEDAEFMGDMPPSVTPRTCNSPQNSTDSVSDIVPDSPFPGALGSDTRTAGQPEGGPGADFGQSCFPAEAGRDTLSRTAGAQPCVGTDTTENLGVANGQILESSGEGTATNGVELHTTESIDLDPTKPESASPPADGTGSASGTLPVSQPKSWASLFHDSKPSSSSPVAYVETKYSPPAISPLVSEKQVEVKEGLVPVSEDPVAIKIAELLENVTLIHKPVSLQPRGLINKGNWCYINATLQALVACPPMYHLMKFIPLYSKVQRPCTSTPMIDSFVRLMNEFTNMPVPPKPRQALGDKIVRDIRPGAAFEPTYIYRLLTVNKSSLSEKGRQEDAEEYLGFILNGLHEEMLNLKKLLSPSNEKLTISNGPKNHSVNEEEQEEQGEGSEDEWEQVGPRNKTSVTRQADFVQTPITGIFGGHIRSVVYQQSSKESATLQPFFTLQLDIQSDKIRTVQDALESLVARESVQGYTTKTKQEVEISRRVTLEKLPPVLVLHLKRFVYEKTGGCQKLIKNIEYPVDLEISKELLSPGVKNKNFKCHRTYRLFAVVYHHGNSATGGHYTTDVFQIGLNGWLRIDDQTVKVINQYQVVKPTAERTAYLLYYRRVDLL
Turning to L209P, the “effect of a mutation on the interaction” value is reported as “with no effect”.

The variants in another test derive from B3. As to conditions: with astrc_human GRAMD1C.
For S158T, the “effect of a mutation on the interaction” value is given as “with no effect”.

In a further test the parent is B3. As to conditions: with astrc_human GRAMD1C. The source holds these as a separate data set.
In the case of A67V, the “effect of a mutation on the interaction” value is “with no effect”.

The variants in the next test derive from B4. As to conditions: with hsbp1_human HSBP1, O75506.
Turning to W337R, the “effect of a mutation on the interaction” value is on record as “disrupting interaction strength”.

In a further test the parent is B5. Conditions: with traf2_human TRAF2, Q12933.
Turning to S387C, the “effect of a mutation on the interaction” value is listed as “with no effect”.

Variants of B6 are the subject of a further test. Conditions: with trim1_human MID2, Q9UJV3.
As to W337R, the “effect of a mutation on the interaction” value was “disrupting interaction strength”.

Variants of B7 are the subject of the next test. As to conditions: with ar6p1_human ARL6IP1, Q15041.
Sequence of ar6p1_human ARL6IP1, Q15041 (Q15041 whole entry): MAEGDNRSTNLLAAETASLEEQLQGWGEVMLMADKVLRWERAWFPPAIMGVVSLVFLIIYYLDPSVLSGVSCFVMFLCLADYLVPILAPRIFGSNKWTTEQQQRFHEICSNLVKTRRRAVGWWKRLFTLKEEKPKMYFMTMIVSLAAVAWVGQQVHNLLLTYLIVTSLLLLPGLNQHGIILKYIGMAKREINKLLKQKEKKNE
T166A: the “effect of a mutation on the interaction” value is on record as “with no effect”.

Variants of B7 are the subject of another test. Conditions: with rtn3_human RTN3, O95197.
Sequence of rtn3_human RTN3, O95197 (O95197 whole entry): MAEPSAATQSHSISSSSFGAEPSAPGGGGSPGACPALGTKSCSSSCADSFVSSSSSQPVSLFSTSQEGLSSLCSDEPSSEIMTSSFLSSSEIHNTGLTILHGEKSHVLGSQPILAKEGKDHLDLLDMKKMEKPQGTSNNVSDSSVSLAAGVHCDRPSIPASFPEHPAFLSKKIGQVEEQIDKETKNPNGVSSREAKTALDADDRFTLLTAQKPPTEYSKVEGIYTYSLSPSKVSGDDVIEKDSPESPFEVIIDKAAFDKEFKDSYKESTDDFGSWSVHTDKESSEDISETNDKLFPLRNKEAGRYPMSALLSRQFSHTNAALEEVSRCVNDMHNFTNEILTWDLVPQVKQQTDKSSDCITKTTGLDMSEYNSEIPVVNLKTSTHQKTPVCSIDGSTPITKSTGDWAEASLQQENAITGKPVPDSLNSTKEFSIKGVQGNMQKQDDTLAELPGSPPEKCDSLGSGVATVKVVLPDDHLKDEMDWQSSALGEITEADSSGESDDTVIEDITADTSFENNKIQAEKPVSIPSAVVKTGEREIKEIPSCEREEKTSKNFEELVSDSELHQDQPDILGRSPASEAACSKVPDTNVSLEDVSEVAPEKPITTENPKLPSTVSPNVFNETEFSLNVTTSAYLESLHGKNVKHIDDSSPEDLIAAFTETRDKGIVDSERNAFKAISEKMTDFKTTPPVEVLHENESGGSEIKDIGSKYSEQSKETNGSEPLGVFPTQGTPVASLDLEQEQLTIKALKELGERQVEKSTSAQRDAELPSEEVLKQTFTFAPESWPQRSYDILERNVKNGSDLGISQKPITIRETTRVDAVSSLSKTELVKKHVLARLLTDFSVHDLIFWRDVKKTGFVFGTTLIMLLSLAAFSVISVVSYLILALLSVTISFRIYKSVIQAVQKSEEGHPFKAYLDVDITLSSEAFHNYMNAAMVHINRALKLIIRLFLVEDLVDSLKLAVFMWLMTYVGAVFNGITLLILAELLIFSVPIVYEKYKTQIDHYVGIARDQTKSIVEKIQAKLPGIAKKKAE
In the case of T166A, the “effect of a mutation on the interaction” value is on record as “with no effect”.

Variants of B7 are the subject of a further test. As to conditions: with rtn4_human RTN4, Q9NQC3.
Sequence of rtn4_human RTN4, Q9NQC3 (Q9NQC3 whole entry): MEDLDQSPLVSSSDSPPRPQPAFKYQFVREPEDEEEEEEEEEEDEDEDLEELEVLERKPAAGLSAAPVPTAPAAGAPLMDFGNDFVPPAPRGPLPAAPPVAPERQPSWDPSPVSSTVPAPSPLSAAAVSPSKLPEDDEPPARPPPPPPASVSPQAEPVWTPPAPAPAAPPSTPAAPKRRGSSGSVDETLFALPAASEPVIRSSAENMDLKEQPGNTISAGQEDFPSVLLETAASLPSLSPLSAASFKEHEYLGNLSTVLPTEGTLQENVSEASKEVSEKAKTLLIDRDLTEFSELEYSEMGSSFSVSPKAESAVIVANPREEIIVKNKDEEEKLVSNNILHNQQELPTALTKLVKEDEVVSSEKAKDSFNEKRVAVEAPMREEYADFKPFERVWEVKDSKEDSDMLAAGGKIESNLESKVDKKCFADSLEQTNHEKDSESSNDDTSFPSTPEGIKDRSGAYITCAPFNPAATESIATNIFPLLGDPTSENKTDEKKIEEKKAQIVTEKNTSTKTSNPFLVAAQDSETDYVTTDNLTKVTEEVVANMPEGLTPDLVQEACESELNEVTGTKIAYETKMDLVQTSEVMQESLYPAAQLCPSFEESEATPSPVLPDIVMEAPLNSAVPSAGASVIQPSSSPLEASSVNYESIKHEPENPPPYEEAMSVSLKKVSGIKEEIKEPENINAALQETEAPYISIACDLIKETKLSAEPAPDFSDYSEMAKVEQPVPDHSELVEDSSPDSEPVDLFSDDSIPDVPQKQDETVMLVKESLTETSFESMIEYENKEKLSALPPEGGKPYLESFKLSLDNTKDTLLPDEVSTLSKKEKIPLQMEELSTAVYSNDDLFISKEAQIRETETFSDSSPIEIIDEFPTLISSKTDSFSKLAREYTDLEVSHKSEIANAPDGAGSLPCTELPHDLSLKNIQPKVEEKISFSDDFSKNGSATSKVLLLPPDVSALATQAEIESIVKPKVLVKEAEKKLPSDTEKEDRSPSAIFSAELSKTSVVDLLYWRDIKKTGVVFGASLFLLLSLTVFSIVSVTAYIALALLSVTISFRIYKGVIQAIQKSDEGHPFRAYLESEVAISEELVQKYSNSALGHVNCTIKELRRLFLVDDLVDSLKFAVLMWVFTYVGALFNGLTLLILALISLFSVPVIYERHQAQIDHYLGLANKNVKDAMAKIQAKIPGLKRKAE
In the case of T166A, the “effect of a mutation on the interaction” value is on record as “with no effect”.
